From patent US6866854 (TRUSTEES OF COLUMBIA UNIVERSITY IN THE CITY OF NEW YORK, dated 2005) come the findings set out here.

For the assay, the target named is T1, LANA2 fused to GAL4-AD (plasmid pGAD424) (Kaposi's sarcoma-associated herpesvirus …, UniProt F5HIC6 1-566).
T1 sequence: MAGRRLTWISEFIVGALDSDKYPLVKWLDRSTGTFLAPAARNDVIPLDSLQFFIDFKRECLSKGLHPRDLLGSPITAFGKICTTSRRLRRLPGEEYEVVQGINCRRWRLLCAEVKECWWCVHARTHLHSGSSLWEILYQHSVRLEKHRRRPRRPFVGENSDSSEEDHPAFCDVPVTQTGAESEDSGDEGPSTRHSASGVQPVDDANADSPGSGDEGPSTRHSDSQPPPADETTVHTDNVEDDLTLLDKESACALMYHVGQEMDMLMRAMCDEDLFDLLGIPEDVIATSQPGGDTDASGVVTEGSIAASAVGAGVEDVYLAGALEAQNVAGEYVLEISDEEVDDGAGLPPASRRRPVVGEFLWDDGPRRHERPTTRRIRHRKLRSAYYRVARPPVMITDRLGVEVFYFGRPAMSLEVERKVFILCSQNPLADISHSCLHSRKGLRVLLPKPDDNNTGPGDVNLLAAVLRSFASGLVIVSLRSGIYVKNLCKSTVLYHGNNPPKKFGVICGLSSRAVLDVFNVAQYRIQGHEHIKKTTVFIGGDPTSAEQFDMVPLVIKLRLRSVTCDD
Description: yeast two-hybrid assay, strain Y-190, b-galactosidase.

B1: murine p53 fused to GAL4 DNA-binding domain (DNA-BD/murine p53 fusion protein PVA3) (other)
chain: MKLLSSIEQACDICRLKKLKCSKEKPKCAKCLKNNWECRYSPKTKRSPLTRAHLTEVESRLERLEQLFLLIFPREDLDMILKMDSLQDIKALLTGLFVQDNVNKDAVTDRLASVETDMPLTLRQHRISATSSSEESSNKGQRQLTVSPVTETPGPVAPAPATPWPLSSFVPSQKTYQGNYGFHLGFLQSGTAKSVMCTYSPPLNKLFCQLAKTCPVQLWVSATPPAGSRVRAMAIYKKSQHMTEVVRRCPHHERCSDGDGLAPPQHLIRVEGNLYPEYLEDRQTFRHSVVVPYEPPEAGSEYTTIHYKYMCNSSCMGGMNRRPILTIITLEDSSGNLLGRDSFEVRVCACPGRDRRTEEENFRKKEVLCPELPPGSAKRALPTCTSASPPQKKKPLDGEYFTLKIRGRKRFEMFRELNEALELKDAHATEESGDSRAHSSYLKTKKGQSTSRHKKTMVKKVGPDSD
notes: also called p53 into the Gal4-BD cassette
Turning to B1, the binding result is “no binding”.
